The source of these data is patent publication US20250304670A1 (AstraZeneca / MedImmune, published 2025).

First the molecules themselves.
B1: Human Amyloid Beta 17-42 truncated peptide (peptide)
peptide: LVFFAEDVGSNKGAIIGLMVGGVVIA
notes: synthetic, unlabelled; also called Abeta 17-42
B5: Abet0007 IgG2 (antibody, V domains shown)
VH: EVQLLESGGGLVQPGGSLRLSCAASGFTFSVYTMWWVRQAPGKGLEWVSVIGSSGGTTVYADSVKGRFTISRDNSKNTLYLQMNSLRAEDTAVYYCAREGQQLVRPYYYYGMDVWGQGTLVTVSS
VL: QSVLTQPPSVSVSPGQTASITCSGHNLEDKFASWYQQKSGQSPVLVIYRDDKRPSGIPERFSASNSGHTATLTISGTQATDEADYYCQAQDSTTRVFGGGTKLTVL
notes: whole human IgG2 with human lambda light chain
B6: Abet0380-GL IgG1-TM (antibody, V domains shown)
VH: EVQLLESGGGLVQPGGSLRLSCAASMGNFNYQTMWWVRQAPGKGLEWVSVIGKTNENIAYADSVKGRFTISRDNSKNTLYLQMNSLRAEDTAVYYCAREWMDHSRPYYYYGMDVWGQGTLVTVSS
VL: SYELTQPPSVSVSPGQTASITCSGHNLEDKFASWYQQKPGQSPVLVIYRDDKRPSGIPERFSASNSGHTATLTISGTQAMDEADYYCSSQDTVTRVFGGGTKLTVL
notes: human IgG1 with the triple mutation L234F/L235E/P331S (TM), human lambda light chain; also called Abet0380-GL (germlined) IgG1-TM

For the experiment “Abet0007 IgG2”, the target named is B5. The experiment can be described thus: HTRF peptide competition: dilution series of unlabelled peptide against 5 nM biotinylated human Amyloid beta 1-42 peptide for 0.3 nM Abet0007 IgG2 (section 1.6). As to the method:
(§1) As described above, the purified sFab fragments that bound specifically to the Amyloid beta 1-42 peptide were converted to recombinant IgG. To test the specificity of these IgGs for binding to other human Amyloid beta peptides, a competition assay was developed. […] The competition of each peptide was assessed by detecting the loss of binding of the lead IgG to the biotinylated 1-42 peptide by measuring the fluorescence resonance energy transfer (FRET) between the IgG and biotinylated 1-42 Amyloid beta using streptavidin cryptate (CisBio International, France; cat: 610SAKLB) and anti-human Fc IgG XL665 (CisBio International, France; cat: 61HFCXLB) detection reagents.
(§2) Streptavidin cryptate and anti-human Fc IgG XL665 were combined at 7 nM and 5 nM respectively in assay buffer containing 50 mM MOPS pH 7.4 (Sigma, UK; cat: M9381), 0.4 M KF (BDH Chemicals, USA; cat: 103444T), 0.1% fatty acid free bovine serum albumin (Sigma, UK; cat: A6003) and 0.1% Tween 20 (v/v) (Sigma, UK; cat: P2287). 5 μl of this solution were added to the assay plate (Costar® 384 well black shallow well, Corning Life Sciences; cat: 3676). Amyloid beta peptides were serially diluted in assay buffer using a Greiner 96 well U bottom plate (Greiner BioOne, Germany; cat: 650201). 5 μl of each peptide dilution were transferred in duplicate to the assay plate using a MiniTrak™ (PerkinElmer, USA) liquid handling robot. […]
In general terms: TR-FRET usually uses a lanthanide donor and a delayed reading to cut background.

The target in experiment [1] is T1, Biotinylated Human Amyloid Beta 1-42 peptide (human, N-terminal biotin).
T1 construct: synthetic (rPeptide A1117 or Bachem H-5642); also called N-terminal biotin Abeta 1-42; synthetic biotinylated human Amyloid beta 1-42 peptide
The experiment can be described thus: SPR (BIAcore T-100), scFv over biotinylated peptide on SA chip, 1:1 Langmuir fit. As to the method:
The chip surface was regenerated between cycles by a single 20 second injection of 10 mM Glycine pH 2.0 to remove scFv bound to the peptide.
A series of dilutions of each purified scFv (12.5-400 nM) were sequentially passed over the peptide surface for a sufficient amount of time to observe sensorgrams that could be fitted to an appropriate binding model with confidence. A zero-concentration buffer blank was subtracted from the main dataset to reduce the impact of any buffer artefacts or non-specific binding effects. An appropriate binding model was then fitted simultaneously to the data from each analyte titration using the BIAevaluation software.

Experiment [2] deals with T1, Biotinylated Human Amyloid Beta 1-42 …. The experiment can be described thus: HTRF epitope competition, purified scFv; competitor Abet0042 IgG. As to the method:
The scFv with unique protein sequences were expressed in E. coli and purified by affinity chromatography followed by buffer exchange. […] The time resolved fluorescence was read after two hours incubation at room temperature.
Purified scFv were serially diluted in assay buffer containing 50 mM MOPS buffer pH 7.4 (Sigma, UK; cat: M9381), 0.4 M potassium fluoride (BDH Chemicals, USA; cat: 103444T), 0.1% fatty acid free bovine serum albumin (Sigma, UK; cat: A6003) and 0.1% Tween 20 (Sigma, UK; cat: P2287) using a Greiner 96 well U bottom plate (Greiner BioOne, Germany; cat: 650201). 5 μl of each dilution of scFv was transferred in duplicate to the assay plate (Costar® 384 well black shallow well, Corning Life Sciences; cat: 3676) using a MiniTrak™ (PerkinElmer, USA) liquid handling robot. […] The assay plates were sealed and incubated at room temperature for 1 hour. Streptavidin cryptate and anti-human Fc IgG XL665 were combined at 7 nM and 20 nM respectively in assay buffer and 5 μl of this solution were added to the assay plate.

The target is the same in experiment [3]. The experiment can be described thus: SPR (ProteOn), scFv over immobilised biotinylated peptide. As to the method: These experiments were performed essentially as described by Karlsson et al. (Karlsson et al., 1991). For further details see section 1.7.
The chip surface was regenerated between cycles by a single 60 second injection of 10 mM Glycine pH 2.0 to remove scFv bound to the peptide.
Each scFv at 100-200 nM was sequentially passed over the peptide surface for a sufficient amount of time to observe sensorgrams that could be fitted to an appropriate binding model with confidence. An irrelevant scFv blank was subtracted from the main dataset to reduce the impact of any buffer artefacts or non-specific binding effects. An appropriate binding model was then fitted to the data.

The target is the same in experiment [4]. Kind of experiment: HTRF epitope competition; competitor Abet0144-GL IgG1-TM.
For experiment [5], the target named is T2, Human Amyloid Beta 1-43 peptide (human).
T2 construct: synthetic, unlabelled; also called Abeta 1-43
Kind of experiment: HTRF peptide competition against biotinylated human Amyloid beta 1-42. As to the method:
as §1, §2

Experiment [6] addresses B1. The description is as above. As to the method: as §1, §2
Experiment [7] has as its target T3, Human Amyloid Beta 1-40 peptide (human).
T3 construct: synthetic, unlabelled; also called unlabelled human Amyloid beta 1-40
Kind of experiment: HTRF peptide competition: dilution series of unlabelled peptide against 5 nM biotinylated human Amyloid beta 1-42 peptide for 0.3 nM Abet0007 IgG2 (section 1.6). As to the method:
as §1, §2

For experiment [8], the target named is T4, Human Amyloid Beta 1-42 peptide (human).
T4 construct: synthetic, unlabelled; also used here for the endogenous peptide of human plasma in the depletion assay; also called unlabelled human Amyloid beta 1-42; synthetic human Amyloid beta 1-42 peptide
Kind of experiment: SPR (BIAcore T-100), peptide over amine-coupled IgG, 1:1 Langmuir fit, mean. As to the method:
The chip surface was regenerated between cycles by a single 40 second injection of 10 mM Glycine pH 2.0 to remove ligand bound to the antibody.
Blank reference flow-cell data were subtracted from each IgG dataset and a zero-concentration buffer blank was double-reference subtracted from the main data set to reduce the impact of any buffer artefacts or non-specific binding effects. An appropriate binding model was then fitted simultaneously to the data from each analyte titration using the BIAevaluation software.
These parameters were derived from a 1:1 Langmuir fit to the data.
On the technique in general: Surface plasmon resonance follows binding to a sensor surface in real time, without labels.

For experiment [9], the target named is T5, Amyloid beta plaques on human Alzheimer's Disease brain sections (human, UniProt P05067 672-713).
T5 construct: mixture of Amyloid beta species in tissue; also called native Amyloid beta; human AD brain sections
The experiment can be described thus: in vitro immunohistochemistry, core plaques.

The experiment “Abet0380-GL IgG1-TM” concerns the target B6. The experiment can be described thus: HTRF (TR-FRET) peptide competition: dilution series of peptide (10 uM to 0.17 nM) against 1.5 nM N-terminal biotin Abeta 1-42 for 0.5 nM Abet0380-GL IgG1-TM (Example 6). How it is done:
The assay was then incubated for a further 2 hrs at room temperature before reading on an Envision plate reader (PerkinElmer) using a standard homogeneous time resolved fluorescence (HTRF) read protocol.
The final assay volume was 20 ul and all reagents were prepared in an assay buffer comprising MOPS pH7.4 (50 mM), potassium fluoride (0.4M), tween 20 (0.1%) & fatty acid free BSA (0.1%). The assay was performed in low volume 384 well black assay plates (Costar 3676).

In a further experiment the target is T6, Abet0144-GL IgG1-TM.
T6 construct: human IgG1 with the triple mutation L234F/L235E/P331S (TM), human lambda light chain; also called Abet0144-GL (germlined) IgG1-TM
Kind of experiment: TR-FRET peptide competition: dilution series of unlabelled peptide against 1.5 nM biotinylated human Amyloid beta 1-42 peptide for 0.28 nM Abet0144-GL IgG1-TM (section 2.10). As to the method:
This involved the use of Europium cryptate labelled anti-human Fc IgG (CisBio International, France; cat: 61 HFCKLB) and XL665 labelled streptavidin (CisBio International, France; cat: 611SAXLB) TR-FRET detection reagents.
Experiments were set up in Costar 384 well shallow bottom microtitre plates. […] 5 μl of assay buffer only was added to the negative binding assay control wells. […] 5 μl per well of each test peptide serial dilution was then transferred onto the 384 well assay plate. 5 μl of assay buffer only was added to the total and negative binding assay control wells. […] Finally, a combined solution was prepared containing Europium cryptate labelled anti-human Fc (2.4 nM) and XL665 labelled streptavidin (60 nM). 5 μl per well of this solution was added to all wells of the 384 well assay plate such that the final concentrations of Europium cryptate labelled anti-human Fc and XL665 labelled streptavidin were 0.6 nM and 15 nM, respectively.

T3 sequence (peptide, as listed by the source): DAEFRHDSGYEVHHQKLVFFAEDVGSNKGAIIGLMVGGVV
T2 sequence (peptide, as listed by the source): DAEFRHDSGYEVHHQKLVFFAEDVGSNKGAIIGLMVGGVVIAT

B1: the binding result with Abet0007 IgG2 is “binds”.

B2: Abet0144 scFv (scFv, V domains shown, not shown: small tags and cut ends)
VH: EVQLLESGGGLVQPGGSLRLSCAASGFTFSVYTMWWVRQAPGKGLEWVSVIGSSGGTTVYADSVKGRFTISRDNSKNTLYLQMNSLRAEDTAVYYCAREWMDHSRPYYYYGMDVWGQGTLVTVSS
VL: QSVLTQPPSVSVSPGQTASITCSGHNLEDKFASWYQQKSGQSPVLVIYRDDKRPSGIPERFSASNSGHTATLTISGTQATDEADYYCQAQDSTTRVFGGGTKLTVL
notes: non-germlined clone; VH is that of Abet0144-GL (no residues changed on germlining); also called most improved clone
In general, Kd refers to the constant that tells how readily two partners part at equilibrium. Read a low Kd as a tighter complex. As usually defined, the koff is the first-order rate constant of dissociation. A higher koff goes with fast dissociation. For orientation: kon means the rate constant with which the complex forms. Read a low kon as slow association. As a reminder, the IC50 is the concentration that inhibits the measured activity by half. A lower IC50 goes with greater potency. In [1], B2 displayed a Kd of 33.2 nM, an off-rate (koff) of 0.00666 s⁻¹ and a kon of 201000 M⁻¹ s⁻¹. The IC50 in experiment [2] amounted to 5.5 nM.

B3: Abet0382 scFv (scFv, V domains shown, not shown: small tags and cut ends)
VH: EVQLLESGGGLVQPGGSLRLSCAASGFHFTNSIMWWVRQAPGKGLEWVSVIGSEAHRVTYADSVKGRFTISRDNSKNTLYLQMNSLRAEDTAVYYCAREWMDHSRPYYYYGMDVWGQGTLVTVSS
VL: SYELIQPPSVSVSPGQTASITCSGHNLEDKFASWYQQKPGQSPVLVIYRDDKRPSGIPERFSATNSGHTATLTISGTQATDEADYYCSSQDSVTRVFGGGTKLTVL
notes: purified scFv from E. coli
In experiment [3], B3 displayed a Kd of 0.354 nM, an off-rate constant (koff) of 7.97e-05 s⁻¹ and a kon of 225000 M⁻¹ s⁻¹. The same molecule showed an IC50 in experiment [4] of 0.66 nM.

B4: Abet0007 scFv (scFv, V domains shown, not shown: small tags and cut ends)
VH: EVQLLESGGGLVQPGGSLRLSCAASGFTFSVYTMWWVRQAPGKGLEWVSVIGSSGGTTVYADSVKGRFTISRDNSKNTLYLQMNSLRAEDTAVYYCAREGQQLVRPYYYYGMDVWGQGTLVTVSS
VL: QSVLTQPPSVSVSPGQTASITCSGHNLEDKFASWYQQKSGQSPVLVIYRDDKRPSGIPERFSASNSGHTATLTISGTQATDEADYYCQAQDSTTRVFGGGTKLTVL
notes: purified scFv from E. coli (pCantab10.5); also called original lead; parent clone
Regarding B4, in [2], the IC50 is 159 nM.

Take B5: the binding result was “binds” in experiment [5], “binds” in experiment [6] and “no binding (tested: about 2.5e-6 M (Log M about -5.6))” in experiment [7]. In experiment [8], binding was put at a Kd of 473 nM. The molecule also displayed a koff in [8] of 0.074 s⁻¹. In addition, in [8], the kon came out at 160000 M⁻¹ s⁻¹.

Regarding B6, in [9], the “plaque staining score (0-4)” value stood at 3.

B7: Human Amyloid Beta 1-16 truncated peptide (peptide)
peptide: DAEFRHDSGYEVHHQK
notes: synthetic, unlabelled; also called Abeta 1-16
Turning to B7, the binding result was “no binding (tested: 1e-5 M (log M -5))” with Abet0380-GL IgG1-TM and “no binding (tested: 1e-5 M (logM -5))” with Abet0144-GL IgG1-TM.
